For test [1], the target named is MART-1 peptide … presented by HLA*A0201 on T2 cells (human). The test can be described thus: cell-based or functional assay.
The target of test [2] is HLA-A*0201-… MHC dextramer (human). In words: flow cytometry of TnT-TCR cells stained with fluorescently-labelled pMHC dextramer and anti-CD3. Background: A flow cytometer gives signals particle by particle.
In test [3] the target is MART-1 peptide … presented by HLA*A0201 on T2 cells (human).
The target of test [4] is HLA-A*0201-… MHC dextramer (human). The test can be described thus: flow cytometry, serial dilutions of pMHC dextramer on TnT-TCR cells; EC50 of normalized dextramer saturation curves.
Test [5] has the same target. In words: flow cytometry, serial dilutions of the target pMHC dextramer on TnT-TCR cells, pMHC-dex+ cells (% of max), three-parameter fit, n=3; the concentration is that of the dextramer.
The target of test [6] is MART-1 peptide on HLA-A*02:01 (human). In words: NFAT-eGFP in TnT-TCR cells after overnight co-culture with peptide-pulsed T2 cells, FIG. 8C; full-length, on cells.
The target of test [7] is NY-ESO-1 peptide … presented by HLA*A0201 on T2 cells (human).

What is called EC50 is the concentration at which the effect is half-maximal. The low end stands for greater potency, the high end for weaker potency. Turning to TCR DMF5, in test [1], the fold difference in functional EC50 between DMF4 and DMF5 was < 2 fold. For the same substance, the Q2 (percent of cells CD3+ and [..] pMHC dex+) (% (unit not given)) in test [2] is 99.1. In addition, the EC50 (peptide concentration for half-maximal GFP+ cells, NFAT-GFP reporter) in test [3] worked out at 8.13 nM. Also, the fold lower EC50 than DMF4 in test [4] was determined as 39 fold. In test [5], this substance registered an EC50 of 0.00692 nM.
Take DMF5: the difference of peptide EC50 between DMF4 and DMF5 in test [6] was < 2 fold.
In test [2], TCR DMF4 registered a Q2 (percent of cells CD3+ and [..] pMHC dex+) (% (unit not given)) of 48. In test [3], this substance came in with an EC50 (peptide concentration for half-maximal GFP+ cells, NFAT-GFP reporter) of 14.2 nM. In test [5], this substance showed an EC50 of 0.267 nM.
For TCR 1G4, in test [2], the Q2 (percent of cells CD3+ and [..] pMHC dex+) (% (unit not given)) was determined as 96.1. Further, in test [7], the EC50 (peptide concentration for half-maximal GFP+ cells, NFAT-GFP reporter) amounted to 167 nM. The substance also had an EC50 in test [5] of 0.0568 nM.
